The results in this text go back to patent US20190218268A1 (INDIANA UNIVERSITY RESEARCH AND TECHNOLOGY, published 2019).

Square brackets hold non-standard residues; d marks the D form. Ends that are not written are not given here. 3Pal = N[C@@H](Cc1cccnc1)C(=O)O; 4Pal = N[C@@H](Cc1ccncc1)C(=O)O; Aib = CC(C)(N)C(=O)O

Common to all, as to test: cell-based or functional assay
One assay concerns the target human glucagon receptor (human, UniProt P47871 26-477).
The next assay has as its target human GLP-1 receptor (human, UniProt P43220 24-463).
In assay [1] the target is glucagon receptor (co-transfected in HEK293 cells with a CRE-luciferase reporter).

human glucagon receptor, sequence (P47871 26-477): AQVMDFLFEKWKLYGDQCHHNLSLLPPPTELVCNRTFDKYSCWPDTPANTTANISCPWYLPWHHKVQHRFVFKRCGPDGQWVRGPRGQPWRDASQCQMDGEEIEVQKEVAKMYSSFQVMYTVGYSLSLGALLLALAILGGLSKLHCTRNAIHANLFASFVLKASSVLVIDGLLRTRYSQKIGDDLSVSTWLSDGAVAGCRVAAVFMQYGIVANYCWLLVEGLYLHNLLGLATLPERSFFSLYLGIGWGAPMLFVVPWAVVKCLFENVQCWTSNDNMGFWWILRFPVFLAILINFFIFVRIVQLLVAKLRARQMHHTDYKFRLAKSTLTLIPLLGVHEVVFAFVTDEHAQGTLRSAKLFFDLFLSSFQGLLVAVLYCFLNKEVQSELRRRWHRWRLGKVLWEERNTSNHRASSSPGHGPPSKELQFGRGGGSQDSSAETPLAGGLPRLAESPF

In the case of HSQGTFTSDYSKYLD[Aib]RRA[dQ]DFVQWLMDE [Glucagon analog Aib16, q20, D28, E29 (SEQ ID NO: 981)], the “hGcgR EC50 (pM)” value with human glucagon receptor came to 18 pM. Moreover, the “hGLP-1R EC50 (pM)” value in the assay with human GLP-1 receptor was > 10000 pM.
For HSQGTFTSDYSK[4Pal]LD[Aib]RRAQDFVQWLMNT [Glucagon analog 6], in assay [1], the “% bioactivity of GCG” value was 60% and the “EC50 [nM] (SDV), luciferase-based glucagon receptor cAMP reporter assay” value (shortened to “EC50 [nM] (SDV)”) is 0.0339 nM.
As to HSQGTFTSDYSKYLD[Aib]RRA[dQ]DFVQWLMDT [Glucagon analog Aib16, q20, D28 (SEQ ID NO: 980)], the “hGcgR EC50 (pM)” value with human glucagon receptor amounted to 33 pM. In addition, the “hGLP-1R EC50 (pM)” value with human GLP-1 receptor worked out at 7480 pM.
On to HSQGT[4Pal]TSD[4Pal]SK[4Pal]LD[Aib]RRAQDFVQWLMNT [Glucagon analog 10], for which, in assay [1], the “% bioactivity of GCG” value was determined as 24% and the “EC50 [nM] (SDV)” value amounted to 0.0843 nM.
HSQGTFTSD[3Pal]SK[3Pal]LD[Aib]RRAQDFVQWLMNT [Glucagon analog 7]: in assay [1], the “% bioactivity of GCG” value amounted to 57% and the “EC50 [nM] (SDV)” value was determined as 0.0359 nM.
The matching figures for HSQGT[3Pal]TSD[3Pal]SK[3Pal]LD[Aib]RRAQD[3Pal]VQWLMNT [Glucagon analog 11]: 1% and 2.33 nM.
The matching figures for HSQGTFTSDYSK[3Pal]LD[Aib]RRAQDFVQWLMNT [Glucagon analog 5]: 54% and 0.0379 nM.
With HSQGTFTSD[4Pal]SK[4Pal]LD[Aib]RRAQDFVQWLMNT [Glucagon analog 8], in assay [1], the “% bioactivity of GCG” value was 66% and the “EC50 [nM] (SDV)” value was 0.0309 nM.
In the case of HSQGTFTSDXSKYLDXRRAXDFVQWLMNT (3-Pal at position 10; Aib at position 16; dGln at position 20) [Glucagon analog 3-Pal10, Aib16, q20 (SEQ ID NO: 971)], in the assay with human glucagon receptor, the “hGcgR EC50 (pM)” value is 86 pM. Besides, the “hGLP-1R EC50 (pM)” value with human GLP-1 receptor is > 10000 pM.
Consider HSQGTFTSD[3Pal]SKYLD[Aib]RRAQDFVQWLMNT [Glucagon analog 4], for which, in assay [1], the “% bioactivity of GCG” value came out at 76% and the “EC50 [nM] (SDV)” value was determined as 0.0268 nM.
For the molecule HSQGT[3Pal]TSD[3Pal]SK[3Pal]LD[Aib]RRAQDFVQWLMNT [Glucagon analog 9], in assay [1], the “% bioactivity of GCG” value is 28% and the “EC50 [nM] (SDV)” value came out at 0.0714 nM.
